Experimental data taken from patent US20150315289A1 (published 2015).

Molecular target: MUC1 (human, UniProt P15941 24-1255, limits assumed)
Assay: immunofluorescence co-localisation on human carcinoma cell lines; MUC5AC siRNA knockdown

B1: humanized PAM4 (hPAM4) IgG (antibody, V domains shown)
VH: QVQLQQSGAEVKKPGASVKVSCEASGYTFPSYVLHWVKQAPGQGLEWIGYINPYNDGTQYNEKFKGKATLTRDTSINTAYMELSRLRSDDTAVYYCARGFGGSYGFAYWGQGTLVTVSS
VL: DIQLTQSPSSLSASVGDRVTMTCSASSSVSSSYLYWYQQKPGKAPKLWIYSTSNLASGVPARFSGSGSGTDFTLTISSLQPEDSASYFCHQWNRYPYTFGGGTRLEIKR
notes: humanized IgG1 kappa; used HRP-conjugated in some ELISAs and blots; also called clivatuzumab; HRP-hPAM4
**Q.** Does B1 bind?
**A.** Result: no binding
